Here are results for 5 molecules from PMC5683694 (ACS Omega, 2017).

Positions of bridges follow the written chain, without caps; N, C: chain ends. No end group written: not given here.

One data set relates to live cells. The conditions noted are these: fluorescence correlation microscopy on live cells; cited from earlier work.
The conditions of data set [1]: cited from earlier work.
In data set [2] the target is Grb7-SH2 domain (growth factor receptor bound protein 7, residues 415-532) (UniProt Q14451 415-532). Kind of data set: thermal shift assay.
Sequence of Grb7-SH2 domain (growth factor receptor bound protein 7, residues 415-532) (Q14451 415-532): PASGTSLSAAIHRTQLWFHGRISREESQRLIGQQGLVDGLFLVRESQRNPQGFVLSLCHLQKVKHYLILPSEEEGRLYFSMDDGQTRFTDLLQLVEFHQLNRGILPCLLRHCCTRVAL

On to NRRMKWKK, for which the translocation efficiency result with live cells is on record as “poor translocation efficiency”.

Regarding FQNRRMKWKK, the “uptake compared to that of the full-length Penetratin sequence” value in data set [1] is given as “negligible uptake”.

B1: G7-18NATE (cyclo-CH2CO-WFEGYDNTFPC) (peptide)
peptide: {CH2CO}-WFEGYDNTFPC
modifications: thioether N-11
On to B1, for which, in data set [2], the “change in Tm” value came out at 0.8 °C.

B2: G7-18NATE-P16 (cyclo-(CH2CO-WFEGYDNTFPC-RQIKIWFQNRRMKWKK)) (peptide)
peptide: {CH2CO}-WFEGYDNTFPCRQIKIWFQNRRMKWKK
modifications: thioether N-11
Regarding B2, the “change in Tm” value in data set [2] came to 0.74 °C.

B3: G7-18NATE-P7 (cyclo-(CH2CO-WFEGYDNTFPC-RRMKWKK)) (peptide)
peptide: {CH2CO}-WFEGYDNTFPCRRMKWKK
modifications: thioether N-11
B3: the “change in Tm” value in data set [2] was found to be 1.8 °C.
